The values below come from US8637043B2, “Compositions useful as ligands for the formyl peptide receptor like 1 receptor and methods of use thereof” (Chemocentryx, Inc., priority 2001, dated 2014).

Ends that are not written are not given here.

One assay relates to human neutrophils. Kind of assay: Calcium flux in human neutrophils. In kind it is cell-based. Particulars: for calcium flux: human neutrophils. The method, then: Ca^2+ mobilization responses were performed using the intracellular ratiometric fluorescent dye, lndo-1. Cells were loaded with Indo-1/AM (3 μM; Molecular Probes, Eugene, Oreg.) in culture medium (45 min, 20° C., 10^7 cells/ml). After dye loading, cells were washed once with 10 ml PBS) and resuspended at 10^6 cell/ml in HBSS containing 1% FBS. Cytosolic [Ca^2+] release was determined using excitation at 350 nm using a Photon Technology International fluorimeter (excitation at 350 nm, ratioed dual emission at 400 and 490 nm).
The human recombinant chemokines, leukotactin, MlP-1α, three known CKβ8 variants CKβ8(1-99), CKβ8(25-99), CKβ8-1(1-116) and a novel NH2-terminal truncated form of CKβ8-1, CKβ8-1 (25-116) were obtained from R&D Systems (Minneapolis, Minn.). Human monocytes were generated from buffy coats (Stanford Blood Center, Palo Alto, Calif.) following a standard protocol. Briefly, PBMC were isolated by standard density gradient centrifugation (Ficoll-Paque-Plus, Pharmacia). Monocytes were purified using CD14 Microbeads (Miltenyi, Auburn, Calif.) magnetic positive selection. Human neutrophils were isolated from fresh peripheral blood from healthy individuals by gradient centrifugation on Ficoll-Hypaque (Hyclone, Calif.).
Human monocytes were either generated from buffy coats (Stanford Blood Center, Palo Also, Calif.) or from fresh blood of healthy individuals following a standard protocol. Briefly, PBMC were isolated by a Ficoll-Paque gradient centrifugation (Ficoll-Paque-Plus, Pharmacia). Monocytes were purified by CD14 Microbeads (Miltenyi) magnetic positive selection. Human neutrophils were isolated from fresh blood by dextran sedimentation and gradient centrifugation Ficoll-Paque gradient centrifugation. All cells were washed and resuspended (1×10^7/ml) in RPMI medium with 10% FBS.
Ca^2+ mobilization responses were performed using an intracellular ratiometric fluorescent dye, Indo-1. Cells were loaded with Indo-1/AM (3 μM; Molecular Probes (Eugene, Oreg.)) in culture medium (45 min, 20° C., 10^7 cells/mi). After dye loading, cells were washed once (10 ml PBS) and resuspended at 10^6 cell/ml in HBSS containing 1% FBS. Cytosolic [Ca^2+] release was determined using excitation at 350 nm using a Photon Technology International fluorimeter (excitation at 350 nm, ratioed dual emission at 400 and 490 nm).

In a further assay the target is T1, CCR1 (Homo sapiens, UniProt P32246).
T1 construct: full length cDNA encoding CCR1 was cloned by the polymerase chain reaction (PCR) from genomic DNA isolated from human peripheral blood cells; expressed in transfected cells; pcDNA3.1 vector)
T1 sequence (P32246 1-355): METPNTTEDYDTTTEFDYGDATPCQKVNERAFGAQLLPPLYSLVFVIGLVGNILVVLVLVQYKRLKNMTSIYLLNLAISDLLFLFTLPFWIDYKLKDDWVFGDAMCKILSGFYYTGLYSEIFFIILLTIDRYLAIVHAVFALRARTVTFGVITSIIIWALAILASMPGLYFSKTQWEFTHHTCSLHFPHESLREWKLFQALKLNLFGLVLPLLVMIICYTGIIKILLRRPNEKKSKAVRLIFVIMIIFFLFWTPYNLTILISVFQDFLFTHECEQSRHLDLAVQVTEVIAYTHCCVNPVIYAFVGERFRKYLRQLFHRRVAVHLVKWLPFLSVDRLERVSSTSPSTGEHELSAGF
As to the kind of experiment: 125I-MIP-1α binding competition, HEK293-CCR1 cells. As for the experimental part: The binding characteristics of CCL23 variants was compared in human CCR1 expressing cells. […] Reactions mixtures were aspirated onto PEI-treated GF/B glass filters using a cell harvester (Packard). The filters were washed twice (25 mM HEPES, 500 mM NaCl, 1 mM CaCl2, 5 mM MgCl2, adjusted to pH 7.1). Scintillant (MicroScint-10; 35 μl) was added to dried filters and the filiters counted in a Packard Topcount scintillation counter. Data were analyzed and plotted using Prism software (GraphPad Software, San Diego, Calif.).

The subject of the next assay is monocytes. Kind of assay: Cross-desensitization with leukotactin, monocytes. Format: cell-based, human. The method, then: In cross-desensitization tests tests, cells were stimulated sequentially with leukotactin and then the chemokines CKβ8(1-99), CKβ8(25-99), CKβ8-1(1-116), and CKβ8-1(25-116). On HEK293-CCR1 transfectants (prepared as in Example 1), leukotactin induced similar patterns of receptor desensitization to all variants.
Similar receptor cross-desensitization tests were performed using both monocytes and neutrophils (prepared as in Example 2).

For MLWRRKIGPQMTLSHAAG [SEQ ID NO: 1], the calcium flux result with human neutrophils (Example 8) is “robust calcium flux”.
For MLWRRKIGPQMTLSHAAY [SEQ ID NO: 6], in the assay on human neutrophils (Example 8), the calcium flux result is recorded as “robust calcium flux”.

B1: CKβ8-1(25-116): novel NH2-terminal truncated form of CKβ8-1, SEQ ID NO: 16, human recombinant chemokine (protein, listed as Homo sapiens)
chain: MLWRRKIGPQMTLSHAAGFHATSADCCISYTPRSIPCSLLESYFETNSECSKPGVIFLTKKGRRFCANPSDKQVQVCMRMLKLDTRIKTRKN
Take B1: the calcium flux result is “induced an unique calcium release” with human neutrophils (100 nM) and “robust calcium flux” in the assay on human neutrophils (Example 8). The “magnitude of calcium release compared with leukotactin” value in the assay on human neutrophils (neutrophils, same amount of leukotactin) is given as “much higher than observed for the same amount of leukotactin stimulation”. Also, the “IC50 increase of truncated variant versus full-length variant” value with CCR1 (HEK293-CCR1) is “one fold”. Moreover, the “desensitization by leukotactin prestimulation” value (from here on “desensitization”) with monocytes was “did not desensitize”.

B2: CKβ8(25-99): known truncated CKβ8 variant, human recombinant chemokine from R&D Systems (protein, listed as Homo sapiens)
chain: RFHATSADCCISYTPRSIPCSLLESYFETNSECSKPGVIFLTKKGRRFCANPSDKQVQVCMRMLKLDTRIKTRKN
As to B2, the calcium flux entry with human neutrophils (100 nM) is “neither MlP-1α nor CKβ8(1-99), CKβ8(25-99) or CKβ8(1-116) induced a calcium flux”. The “desensitization” value in the assay with monocytes was “completely desensitized”.

B3: CKβ8-1(1-116): alternatively spliced form of CKβ8, 116 amino acids, human recombinant chemokine (protein, listed as Homo sapiens)
chain: RVTKDAETEFMMSKLPLENPVLLDMLWRRKIGPQMTLSHAAGFHATSADCCISYTPRSIPCSLLESYFETNSECSKPGVIFLTKKGRRFCANPSDKQVQVCMRMLKLDTRIKTRKN
With B3, the calcium flux result in the assay on human neutrophils (100 nM) was “neither MlP-1α nor CKβ8(1-99), CKβ8(25-99) or CKβ8(1-116) induced a calcium flux”. Besides, the “fold less potency than CKβ8(1-99)” value in the assay with CCR1 (displacement of bound 125I-MIP-1α from CCR1) was 3-4 fold. In the assay on monocytes, the “desensitization” value is given as “completely desensitized”.
